B1: Complement factor H (Homo sapiens), P08603 (parent)
chain: MRLLAKIICLMLWAICVAEDCNELPPRRNTEILTGSWSDQTYPEGTQAIYKCRPGYRSLGNVIMVCRKGEWVALNPLRKCQKRPCGHPGDTPFGTFTLTGGNVFEYGVKAVYTCNEGYQLLGEINYRECDTDGWTNDIPICEVVKCLPVTAPENGKIVSSAMEPDREYHFGQAVRFVCNSGYKIEGDEEMHCSDDGFWSKEKPKCVEISCKSPDVINGSPISQKIIYKENERFQYKCNMGYEYSERGDAVCTESGWRPLPSCEEKSCDNPYIPNGDYSPLRIKHRTGDEITYQCRNGFYPATRGNTAKCTSTGWIPAPRCTLKPCDYPDIKHGGLYHENMRRPYFPVAVGKYYSYYCDEHFETPSGSYWDHIHCTQDGWSPAVPCLRKCYFPYLENGYNQNYGRKFVQGKSIDVACHPGYALPKAQTTVTCMENGWSPTPRCIRVKTCSKSSIDIENGFISESQYTYALKEKAKYQCKLGYVTADGETSGSITCGKDGWSAQPTCIKSCDIPVFMNARTKNDFTWFKLNDTLDYECHDGYESNTGSTTGSIVCGYNGWSDLPICYERECELPKIDVHLVPDRKKDQYKVGEVLKFSCKPGFTIVGPNSVQCYHFGLSPDLPICKEQVQSCGPPPELLNGNVKEKTKEEYGHSEVVEYYCNPRFLMKGPNKIQCVDGEWTTLPVCIVEESTCGDIPELEHGWAQLSSPPYYYGDSVEFNCSESFTMIGHRSITCIHGVWTQLPQCVAIDKLKKCKSSNLIILEEHLKNKKEFDHNSNIRYRCRGKEGWIHTVCINGRWDPEVNCSMAQIQLCPPPPQIPNSHNMTTTLNYRDGEKVSVLCQENYLIQEGEEITCKDGRWQSIPLCVEKIPCSQPPQIEHGTINSSRSSQESYAHGTKLSYTCEGGFRISEENETTCYMGKWSSPPQCEGLPCKSPPEISHGVVAHMSDSYQYGEEVTYKCFEGFGIDGPAIAKCLGEKWSHPPSCIKTDCLSLPSFENAIPMGEKKDVYKAGEQVTYTCATYYKMDGASNVTCINSRWTGRPTCRDTSCVNPPTVQNAYIVSRQMSKYPSGERVRYQCRSPYEMFGDEEVMCLNGNWTEPPQCKDSTGKCGPPPPIDNGDITSFPLSVYAPASSVEYQCQNLYQLEGNKRITCRNGQWSEPPKCLHPCVISREIMENYNIALRWTAKQKLYSRTGESVEFVCKRGYRLSSRSHTLRTTCWDGKLEYPTCAKR
partner: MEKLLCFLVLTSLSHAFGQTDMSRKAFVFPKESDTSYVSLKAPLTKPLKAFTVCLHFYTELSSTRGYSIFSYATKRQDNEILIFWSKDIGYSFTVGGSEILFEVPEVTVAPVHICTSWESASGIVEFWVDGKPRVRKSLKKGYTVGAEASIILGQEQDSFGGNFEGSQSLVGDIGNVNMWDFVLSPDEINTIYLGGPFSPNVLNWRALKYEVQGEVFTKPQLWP

Variants of: B1
Details: with crp_human CRP

Row | effect of a mutation on the interaction | Variant
1 | decreasing interaction strength | Y402H

Reference: IntAct's records for PubMed 17339482
